Assay results reported in US6713273B2, “High expression and production of high specific activity recombinant S-adenosyl homocysteinase (SAHH) and improved assays for S-adenosylmethionine (SAM)” (priority 2000, dated 2004).

Columns and labels:
[1] = SAHH activity measurement (SAH hydrolysis coupled to rHCYase, DBPDA readout); format: biochemical
Procedure: Assay buffer: 20 mM potassium phosphate, pH 8.0, 1 mM DTT, and 1 mM EDTA.
2 mM S-adenosyl-L-homocysteine (SAH)
L-homocysteine (various concentrations)
40 mM DBPDA, dissolved in 6 M HCl
40 mM potassium ferricyanide
Mix well and incubate at 37° C. for 10 min. and read absorbance at 675 nm or fluorescence at EX665 nm/EM690 nm. 1 unit is defined as 1 μmole of S-adenosylhomocysteine hydrolated in 1 min. at 37° C. in the presence of excess rHCYase.

[2] = Stability study of SAHH / His•SAHH; format: physicochemical; conditions: 45° for three days; FIGS. 2 and 5
Source text: FIG. 2 contains the results of a stability study of SAHH.
FIG. 5 contains the results of a stability study of His•SAHH.
The SAHH enzyme of the invention has favorable properties. For instance, the SAHH has a high specific activity of at least […]. Further, the cloned SAHH of the invention provides a high expression of 20% of total cell protein. Moreover, SAHH produced according to the method of the invention has high stability as illustrated in the attached FIGS. 2 and 5.
The enzyme was formulated as follows: 20 mM potassium phosphate buffer, pH 7.6, 100 mM sodium chloride, 30% glycerol, 1 mM DTT, 1 mM NAD, and 1 mM EDTA.

B1: SAHH: Recombinant T. vaginalis S-adenosyl homocysteinase encoded by SEQ ID NO:1 (amino acid SEQ ID NO:7), expressed in E. coli (protein, listed as Homo sapiens)
chain: MACKSPTGAPFEYRIADINLHVLGRKELTLAEKEMPGLMVLRERYSASKPLKGVRISGSLHMTVQTAVLIETLTALGADVRWASCNIFSTQDTAAAAIVVGPTGTPEKPAGIPVFAWKGETLPEYWENTYRALTWPDGQGPQQVVDDGGDATLLISKGFEFETAGAVPEPTEADNLEYRCVLATLKQVFNQDKNHWHTVAAGMNGVSEETTTGVHRLYQLEKEGKLLFPAINVNDAVTKSKFDNIYGCRHSLIDGINRASDVMIGGKTALVMGYGDVGKGCAQSLRGQGARVIITELDPICALQAAMEGYQVRRIEEVVKDVDIFVTCTGNCDIISVDMMAQMKDKAIVGNIGHFDNEIDTDGLMKYPGIKHIPIKPEYDMWEFPDGHAILLLAEGRLLNLGCATGHPSFVMSMSFTNQTLAQLDLYEKRGNLEKKVYTLPKHLDEEVARLHLGSLDVHLTKLTQKQADYINVPVEGPYKSDAYRY
specific activity ([1]; general statement on the SAHH of the invention): at least 1.5 U/ml | specific activity ([1]; purified enzyme, 1 unit = 1 μmole SAH hydrolated in 1 min at 37° C. with excess rHCYase): 1.64 units/mg protein | stability (activity loss) [2]: without activity loss
